US20240287163A1 (Chugai, published 2024)

T1: recombinant human C1r2s2 tetramer (human, UniProt P09871 16-688; P00736 18-705)
T1 construct: C1s and C1r co-expressed in HEK293 and purified from the supernatant as tetramer; also called hC1r2s2
T1 chain 1: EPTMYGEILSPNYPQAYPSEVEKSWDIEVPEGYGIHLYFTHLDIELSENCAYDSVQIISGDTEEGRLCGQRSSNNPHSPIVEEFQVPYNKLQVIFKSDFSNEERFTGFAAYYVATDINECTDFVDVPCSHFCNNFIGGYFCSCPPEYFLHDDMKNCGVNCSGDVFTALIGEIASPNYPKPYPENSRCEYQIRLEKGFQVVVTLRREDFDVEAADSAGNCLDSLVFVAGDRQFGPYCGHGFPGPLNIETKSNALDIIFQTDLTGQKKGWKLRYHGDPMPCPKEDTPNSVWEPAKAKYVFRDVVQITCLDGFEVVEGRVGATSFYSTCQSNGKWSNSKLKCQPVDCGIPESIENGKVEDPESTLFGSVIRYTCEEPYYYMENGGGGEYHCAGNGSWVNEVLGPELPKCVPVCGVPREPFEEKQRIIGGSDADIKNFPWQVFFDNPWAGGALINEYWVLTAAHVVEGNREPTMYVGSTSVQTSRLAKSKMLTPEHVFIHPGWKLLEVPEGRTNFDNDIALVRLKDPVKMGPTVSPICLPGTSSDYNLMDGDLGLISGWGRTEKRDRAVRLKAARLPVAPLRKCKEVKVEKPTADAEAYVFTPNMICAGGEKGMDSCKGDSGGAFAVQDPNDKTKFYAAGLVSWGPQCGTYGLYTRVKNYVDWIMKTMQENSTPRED
T1 chain 2: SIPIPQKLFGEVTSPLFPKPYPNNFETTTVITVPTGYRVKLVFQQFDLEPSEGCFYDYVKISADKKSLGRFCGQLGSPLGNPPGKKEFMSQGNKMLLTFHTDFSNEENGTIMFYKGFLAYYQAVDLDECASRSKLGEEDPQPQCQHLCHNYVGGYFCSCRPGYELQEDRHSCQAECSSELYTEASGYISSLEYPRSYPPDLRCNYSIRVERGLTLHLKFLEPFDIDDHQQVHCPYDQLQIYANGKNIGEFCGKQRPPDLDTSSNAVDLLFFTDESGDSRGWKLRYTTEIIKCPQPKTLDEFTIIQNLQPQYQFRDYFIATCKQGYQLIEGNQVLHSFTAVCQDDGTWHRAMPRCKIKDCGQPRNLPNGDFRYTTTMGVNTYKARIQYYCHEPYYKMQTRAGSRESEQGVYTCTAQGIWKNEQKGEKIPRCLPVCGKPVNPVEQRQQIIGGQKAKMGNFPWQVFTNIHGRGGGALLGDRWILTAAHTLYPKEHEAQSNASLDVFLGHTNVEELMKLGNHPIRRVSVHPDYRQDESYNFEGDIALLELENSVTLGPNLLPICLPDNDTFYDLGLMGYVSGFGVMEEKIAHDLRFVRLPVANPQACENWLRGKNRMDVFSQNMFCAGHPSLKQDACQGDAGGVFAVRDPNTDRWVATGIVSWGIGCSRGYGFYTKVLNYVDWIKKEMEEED

T2: recombinant cynomolgus C1r2s2 tetramer (cynomolgus monkey, limits assumed)
T2 construct: also called cyC1r2s2; monkey C1r2s2
T2 chain 1: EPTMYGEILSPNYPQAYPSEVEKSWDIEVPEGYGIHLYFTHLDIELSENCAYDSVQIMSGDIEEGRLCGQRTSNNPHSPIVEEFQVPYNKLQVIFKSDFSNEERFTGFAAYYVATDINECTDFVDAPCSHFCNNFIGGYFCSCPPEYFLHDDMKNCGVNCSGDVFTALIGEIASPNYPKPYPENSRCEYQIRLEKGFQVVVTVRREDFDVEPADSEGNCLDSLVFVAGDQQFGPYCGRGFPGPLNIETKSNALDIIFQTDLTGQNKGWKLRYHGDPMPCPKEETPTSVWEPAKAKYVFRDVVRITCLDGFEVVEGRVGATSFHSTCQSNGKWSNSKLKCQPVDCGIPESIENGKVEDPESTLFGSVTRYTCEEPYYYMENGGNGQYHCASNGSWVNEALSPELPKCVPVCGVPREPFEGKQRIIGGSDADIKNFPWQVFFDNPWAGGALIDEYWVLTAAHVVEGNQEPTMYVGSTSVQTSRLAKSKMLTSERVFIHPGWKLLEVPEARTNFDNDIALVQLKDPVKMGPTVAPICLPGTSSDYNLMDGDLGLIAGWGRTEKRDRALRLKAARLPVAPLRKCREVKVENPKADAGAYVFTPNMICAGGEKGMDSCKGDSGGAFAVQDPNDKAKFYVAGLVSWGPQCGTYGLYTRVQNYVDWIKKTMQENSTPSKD
T2 chain 2: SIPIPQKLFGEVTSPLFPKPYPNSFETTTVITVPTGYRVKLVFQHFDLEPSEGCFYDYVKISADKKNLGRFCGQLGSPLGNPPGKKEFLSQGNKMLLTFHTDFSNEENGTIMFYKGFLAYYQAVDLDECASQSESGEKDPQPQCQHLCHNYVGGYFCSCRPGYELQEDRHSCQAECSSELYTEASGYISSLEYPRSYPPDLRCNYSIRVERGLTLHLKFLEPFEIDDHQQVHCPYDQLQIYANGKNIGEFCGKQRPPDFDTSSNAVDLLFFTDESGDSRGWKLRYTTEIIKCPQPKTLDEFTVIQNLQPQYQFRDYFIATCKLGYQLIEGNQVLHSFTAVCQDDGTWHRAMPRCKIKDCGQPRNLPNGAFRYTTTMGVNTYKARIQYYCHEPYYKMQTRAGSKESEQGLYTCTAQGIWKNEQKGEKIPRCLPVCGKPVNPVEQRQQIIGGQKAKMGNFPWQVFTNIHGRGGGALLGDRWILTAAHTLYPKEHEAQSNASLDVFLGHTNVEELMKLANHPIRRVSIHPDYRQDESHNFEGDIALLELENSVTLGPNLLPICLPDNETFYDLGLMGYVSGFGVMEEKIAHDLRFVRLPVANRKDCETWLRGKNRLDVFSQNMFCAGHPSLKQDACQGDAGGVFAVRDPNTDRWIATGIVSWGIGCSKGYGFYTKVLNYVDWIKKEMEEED

B1: IPN009VH2VK3-SG1148 (antibody, human IgG1, kappa, V domains shown)
VH: EVMLVESGGGLVKPGGSLRLSCAASGFTFSNYAMSWVRQAPGKGLEWVATISSGGSHTYYLDSVKGRFTISRDNSKDTLYLQMNSLRAEDTALYYCARLFTGYAMDYWGQGTLVTVSS
VL: QIVLTQSPATLSLSPGERATLSCTASSSVSSSYLHWYQQKPGKAPKLWIYSTSNLASGVPSRFSGSGSGTDYTLTISSLQPEDFATYYCHQYYRLPPITFGQGTKLEIKR
notes: Anti-C1s / anti-human C1r2s2 antibody immobilised on the chip as capture reagent
B2: COS0637pHv3-TT91R (antibody, human IgG1, V domains shown)
VH: QVQLVESGGGVVQPGRSLRLSCAASGFTFSAYAMNWIRQPPGKGLEWIGLIYGSGHEFYASWAEERVTISVDTSKNQFSLKLSSVTAADTAVYYCARGRSKNYVSGFHLWGQGTLVTVSS
VL: DIQMTQSPSSLSASVGDRVTITCQASQILHDKKNLAWYQQKPGQPPKLLIYQASQLESGVPSRFSGSGSGTDFTLTISSLQPEDFATYYCHGEFSYESADLNQFGQGTKVEIKR
notes: Modified human IgG1 constant region TT91R, light chain constant region SK1

What was measured:
[1] = molecular target: T1, recombinant human C1r2s2 tetramer; test: SPR (Biacore T200), IPN009 immobilised on CM5 chip as capture antibody
Method: (§1) The binding property of each sample at pH7.4 and pH6.0 was determined at 37° C. using BIACORE® T200 instrument (Cytiva). […] 20 mM ACES, 150 mM NaCl, 1.2 mM CaCl₂, 1 mg/mL BSA (not containing IgG), 1 mg/mL CMD, 0.05% Tween® 20, 0.005 w/v % NaN₃, pH7.4 or pH6.0 buffer was used as the running buffer. […] The antibody solution was added thereto at 30 μL/min for 120 seconds, the running buffer was then added at 30 μL/min for 180 seconds, and the dissociation constant (KD) of each antibody for hC1r2s2 and cyC1r2s2 was calculated. […] The sensor surface was regenerated every cycle, using 3 M MgCl2 (prepared in-house). The KD value was calculated using BIACORE® T200 evaluation software version 2.0 (Cytiva). The binding strengths under each pH condition were compared by dividing the KD value at pH6.0 with the KD value at pH7.4.

[2] = molecular target: T2, recombinant cynomolgus C1r2s2 tetramer; test: as above
Method: as §1

[3] = molecular target: T1, recombinant human C1r2s2 tetramer; test: SPR (Biacore T200), 37 C; ratio of KD at pH 6.0 to KD at pH 7.4
Method: as §1

[4] = molecular target: T2, recombinant cynomolgus C1r2s2 tetramer; test: as above
Method: as §1

[5] = molecular target: T2, recombinant cynomolgus C1r2s2 tetramer; test: SPR (Biacore T200), 37 C, pH 6.0; cyC1r2s2 captured by IPN009, antibody as analyte
Method: as §1

[6] = molecular target: T2, recombinant cynomolgus C1r2s2 tetramer; test: SPR (Biacore T200), 37 C, pH 7.4; cyC1r2s2 captured by IPN009, antibody as analyte
Method: as §1

[7] = molecular target: T1, recombinant human C1r2s2 tetramer; test: SPR (Biacore T200), 37 C, pH 6.0; hC1r2s2 captured by IPN009, antibody as analyte; pH 6.0, 37 C; hC1r2s2 captured by IPN009 on the chip, antibody as analyte
Method: as §1

[8] = molecular target: T1, recombinant human C1r2s2 tetramer; test: SPR (Biacore T200), 37 C, pH 7.4; hC1r2s2 captured by IPN009, antibody as analyte; pH 7.4, 37 C; hC1r2s2 captured by IPN009 on the chip, antibody as analyte
Method: as §1

Binder	binding result [1]	binding result [2]	KD (pH 6.0)/KD (pH 7.4) [3]	KD (pH 6.0)/KD (pH 7.4) [4]	Kd [5]	Kd [6]	Kd [7]	Kd [8]
B1	binds	binds						
B2			26.5	43.8	22 nM	0.502 nM	10.3 nM	0.388 nM
